From patent US20260258472A1 come the findings set out here.

In assay [1] the target is Human SOD1 in sporadic ALS (sALS) spinal cord homogenate (human) (UniProt P00441). The assay is described as follows: immunoprecipitation with antibody-linked magnetic beads; immunoblot of the flow-through of sALS patient 4 spinal cord homogenate. (Immunoblotting shows a protein as a band on a membrane.)
For assay [2] the target is unchanged. Put plainly: cell-based or functional assay.

Sequence of UniProt P00441 (P00441 2-154 limits assumed): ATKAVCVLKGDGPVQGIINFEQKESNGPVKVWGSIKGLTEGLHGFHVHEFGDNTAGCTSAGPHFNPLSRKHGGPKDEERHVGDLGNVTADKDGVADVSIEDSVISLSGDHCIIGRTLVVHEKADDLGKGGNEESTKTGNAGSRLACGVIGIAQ

In assay [1], “Anti-human SOD1 antibody C4F6 (misfolded SOD1; MediMabs #MM-0070-2-P)” showed a percent SOD1 remaining in flow-through compared to input of 21%. In addition, in assay [2], the 50% ThT (RFU), SOD1 RT-QuIC after immunodepletion was 21900 RFU and the Lag phase (hours), SOD1 RT-QuIC after immunodepletion was determined as 62.4 h.
Taken in the same sequence, the figures for “Isotype control antibody mIgG2a (ThermoFisher #MA110418)” were 28%, 27600 RFU and 57.6 h.
Taken in the same sequence, the figures for “Isotype control antibody mIgG2b (ThermoFisher #MA110427)” were 75%, 32100 RFU and 70.2 h.
In the same order, the values of “Mouse-anti-SOD1 antibody, clone O98B10 (pan-SOD1; BioLegend #850702)” are 23%, 27300 RFU and 62.7 h.
